The RNAGym collection of RNA variant scans (doi:10.1073/pnas.2313332121)
This sample holds only a part of the variants without activity.

B1: TPR 5TU (parent)
chain: GGAUCUUCUCGAUCUAACAAAAAAGACAAAUCUGCCACAAAGCUUGAGAGCAUCUUCGGAUGCAGAGGCGGCAGCCUUCGGUGGCGCGAUAGCGCCAACGUUCUCAACUAUGACACGCAAAACGCGUGCUCCGUUGAAUGGAGUUUAUCAUG

Variants of: B1
Experiment: polymerase ribozyme fitness, log enrichment relative to wild type (log ratio); higher = more active; in vitro selection for triplet polymerase activity
Procedure, shortened: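 Mutant libraries were PCR-built and transcribed for each subunit of a heterodimeric triplet polymerase ribozyme and selected for one round in triplicate at −7 °C, frozen, before gel excision of extended constructs and streptavidin-bead capture. Input and output libraries were Illumina-sequenced, keeping genotypes with ≥10 input reads and ≥1 read per output. Fitness is a logarithmic ratio of genotype to wild-type enrichment, in base 2, using inverse-variance-weighted replicate averages.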

Polymerase ribozyme fitness (log ratio), ≤ -4.2:
GGAUCUUCACGAUCUAACAAAAAAGACAAAUCUGCCACCAAGCUUGAGAGCAGCUUCGGAUGCAGAGGCGGCAGCCUUCGGUGGCGCGAUAACGCCAACGUUCUCAACUAUCGCACGCAAAACGCGUGCUCCGUUGAAUGGAGUUUAUGAUG
GGAUCUUCACGAUCUAACAAACAAGACAAAUCUGCCUCAAAGCUAGAGAGCAACUUCGGAUGCAGAGGCGGCAGCCUUCGGUGACGCGAUAGCGCCAACGUUCUCAACUAUGACACGCAAAACGCGUGCUCCGUUGAAUGGAGUUUUUCAUG
GGAUCUUCACGAUCUAACAAAAAAGACAAAUAGGCCACAAAGCUUGAGUGUAAUUUCGGAUGCAGAGGCGGCAGCCUUCGGUGUCGCGAUAGCGCCAACGUUAUCAAGUAUGACACGGAAAACGCGUGCUCCGUUGAAUGGAGUUUAUUAUG
GGAUCUUCACGAUCUAAGAAAAAAGACAAAUCUGCCACAAAGCUUGAGAGCGUCUUCCGAUGCAGAGGCGGCAGCCUUCGGUGGCGCGAUAGCGCCAACGUUCUCAACUAUGACACGCAAAACGCGUGCUCCGUUGAGUGGAGUUUAUCAUG
GGAUCUUCACGAUCUAACAAAAAAGACAAAUCUGCAACAAAGCUUGAGAGCAUCUUCGGAUGCAGAGGCGGGAGCCUUCGGUGGCGCGAUAACGCCAACGUUCUCAACUAUGACACGCAAAACGCGUGAUCCGUUGUAUGGAGUUUAUCAUG
GGAUCUUCACGAUCUAACAAAAAAGACAAAUCUGCCACAAAGCUUGAGAGCAUCUUCGGAUGCAGAGGCGGCGGCCUUCGGUGGCGCGAUAGCGCCAACGUUCUCAACUAUGACACGCAAAACGCGUGCUCCGUUGAAUGGAGUUUAUCAUG
GGAUCUUCACGAUCUAACACAAAAGGCUAAUCUGCCACAAAGCUUGAGAGCAUCUUCGGAUGCAGAUGCGGCAGCCUUCGGCGGCGCGAGAGCGCCAACGUUCUCAACUAUGACACGCAAAACACGUGCUCCGCUGAAUGGAGUUAAUCAUG
GGAUCUUCACGAUCUAACAAAGAAGACAAAUCUACCACAAAGCUUGAGAGCAUCUUCGGAUGCAGAGGCGGCAGCCUUCGGUGGCGCGAUAGCGCCAACGUUCUCGACUAUGACAUGCAUAACGCGUGCUCCGUUGAAUGGAGUUUAUCAUG
GGAUCUUCACGAUCUAACAAAACAGACAAAUCUGGCACAAAGCUUGAGAGCAUCUUCGGAUGCAGAGGCGGCAGUCUUCGGUGGCGCGAUAUCGGCAACGUUCUCAACUAUGACACGCAAAACGCGAGCUCCGUUGAAUGGAGUUUAUCAUG
GGAUCUUCACGAUCUAACAAAAAGGACAAAUCUGCCACAAAGCUUGAGAGCAUAUUCGGAUGCAGAGGCGGCAGCCUUCGGUGGCGGGAUAGCGCCAACGUUCUCAACUAUGACACGCAAAACGCGUGCUCCGUUGAAUGGAGUUUAUCAUG
GGAUCUUCACGAUAUAACAAAAUAGACAACUCUGCAACAAAGCUUGAGAGCAUCUUCGGAUGCAGAGGCGGCAGCCUUCGGUGGCGCGAUAGCGUCAACGUUCUCAACUUUGACACGCAAAACGCGUGCUCCGUUGAAUGGAGUUUAUCAUG
GGAUCUUCACGAUCUAACAAAAAAGACAAAUGUGCCACAAAGCUUGAGAGCAUAUUCGGAUGCAGAGGCGGCAGCCUUCGGUGGCCCGAUAGCGCCAACGUUCUCAACGAUGACACGCAAAACGCGUGCUCCGUUAAAUGGAGUUUAUCAUG
GGAUCUUCACGAUCUGACAAAAAAGACAAAUCUGCCACAAAGCUAGAGAGCAUCUUAGGAUGCAGAGGCGGCAGGCUUCGGUUGCGCGAUAACGCCAACGUUCUCAACUAUGACACGCAAAACGCGUGCUCCGUUGAAUGGAGUUUAUCAUG
GGAUCUUCACGAUUUAACAAAAAAGACAAAUCUGCCACAAAGCUUGAGUGUAUCUUCGGAUGCAGAGGCGGCAGCCUUCGGUGGCUCGUUAGCGCCAACGUUCUCAACUAUGACACGCAAAACGCGUGCUCCGUUGAAUGGAGUUUAUCAUG
GGAUCUUCAUGAUCUAACAAAAAAGACAAAUCUGCCACAAAGCUUGAGAGCAUCUUCGGAUGCAGAGGCGGCAGACUUCGGUGGCGAGAUAGCGCCAACGUUCUCAACUGUGACACGCCAAACGCGUGCUCCGUUGAAUGGAGUUUAUCAUG
GGAUCUUCACGAUCUAACAAAAAUGACAAAUCUGCCACAAAGCUUGAGAGCAUCUUCGGAUGCAGAGGCGGCAGCCUUCGGUGGCGCGAUAGCGCCAACGUUCUCAACUAUGACACGCAAUUCGCGUGCUCCGUUGAAUGAAGUUUAUCAUG
GGAUCUUCACGAUCUAACAAAAAAGUCAAAUCUGCCACAAAGCUUGCGGGCAUCUUCGGAUGCAGAGGCGGCAGCCUUCGGUGACCCGAUAGCGCCAACGUUCUCAACUAUGACACGCAAAACGCGUGCUCCGUUGAAUGGAGUUUAUCAUG
GGAUCUUCACGAUCUAACAAAAAAGGCAAAUCUGCCACAAAGCUUGAGAGCAUCUUCGGAUGCAGCGGCGGCAGCCUUCGGUGGCGCGAUAGCGCCAACGUUCUCAACUAUGACACGCAAAUCGCGUGCUCCGUUGUAUGGACUAUAUCAUG
GGAUCUUCACGAUCUUACUAAAAAGAGAAAUCUGCCACAAAGCUUGAGAGCAUCUUCGGAUGCAGAGGCGGCAGCCCUCGGUGACGCGAUAGCGCCAACCUUCUCAACUAUGACACGCAAAACGCGUGCUCCUUUGAAUGAAGUAUAUCAUG
